Assay results: patent publication US20110182911A1 (published 2011)
Values belong to the molecule of their own block, whether it stands above or below them.

What was measured:
[1] = biological target: recombinant human BMP-4 (human) (UniProt P12644); test: cell-based or functional assay
recombinant human BMP-2 = recombinant human BMP-2 (human, UniProt P12643 283-396); test: cell-based or functional assay
Sequence of recombinant human BMP-2 (P12643 283-396 limits assumed): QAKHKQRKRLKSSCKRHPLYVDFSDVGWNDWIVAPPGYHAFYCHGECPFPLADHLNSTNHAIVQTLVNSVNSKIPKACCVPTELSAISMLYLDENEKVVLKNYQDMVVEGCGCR

Sequence of recombinant human BMP-4 (human) (P12644 293-408 limits assumed): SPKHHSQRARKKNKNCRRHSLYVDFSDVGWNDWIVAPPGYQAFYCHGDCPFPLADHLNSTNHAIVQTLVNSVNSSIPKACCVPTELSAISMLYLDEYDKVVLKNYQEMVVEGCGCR

alkaline phosphatase (ALP) activity in C2C12 cells; molar ratio of antagonist to BMP at which the BMP-induced increase is completely inhibited (molar ratio (bAHSG:rhBMP-4)) [1]: > 56800
alkaline phosphatase (ALP) activity in C2C12 cells; molar ratio of antagonist to BMP at which the BMP-induced increase is completely inhibited (molar ratio (fetuin:rhBMP-4)) [1]: > 55000
Molecule: bovine fetuin (from UniProt P12763 19-359)

alkaline phosphatase (ALP) activity in C2C12 cells; molar ratio of antagonist to BMP at which the BMP-induced increase is completely inhibited (recombinant human BMP-2): 1.1 molar ratio (rmNGN:rhBMP-2)
B1: recombinant mouse Noggin (other, UniProt P97466 28-232, looked up)
chain: QHYLHIRPAPSDNLPLVDLIEHPDPIFDPKEKDLNETLLRSLLGGHYDPGFMATSPPEDRPGGGGGPAGGAEDLAELDQLLRQRPSGAMPSEIKGLEFSEGLAQGKKQRLSKKLRRKLQMWLWSQTFCPVLYAWNDLGSRFWPRYVKVGSCFSKRSCSVPEGMVCKPSKSVHLTVLRWRCQRRGGQRCGWIPIQYPIISECKCSC
